{"source": "patent US20240279298A1", "about": "(BEIJING TUO JIE BIOPHARMACEUTICAL CO. LTD., priority 2021, published 2024)", "molecules": {"B1": {"name": "Glucagon analog compound 41 (peptide)", "peptide": "H-HSQGTFTSDYSKYLDV[Aib]RAQEFVQWLEST-OH", "SMILES": "CC(C)C[C@H](NC(=O)[C@H](Cc1c[nH]c2ccccc12)NC(=O)[C@H](CCC(N)=O)NC(=O)[C@@H](NC(=O)[C@H](Cc1ccccc1)NC(=O)[C@H](CCC(=O)O)NC(=O)[C@H](CCC(N)=O)NC(=O)[C@H](C)NC(=O)[C@H](CCCNC(=N)N)NC(=O)C(C)(C)NC(=O)[C@@H](NC(=O)[C@H](CC(=O)O)NC(=O)[C@H](CC(C)C)NC(=O)[C@H](Cc1ccc(O)cc1)NC(=O)[C@H](CCCCN)NC(=O)[C@H](CO)NC(=O)[C@H](Cc1ccc(O)cc1)NC(=O)[C@H](CC(=O)O)NC(=O)[C@H](CO)NC(=O)[C@@H](NC(=O)[C@H](Cc1ccccc1)NC(=O)[C@@H](NC(=O)CNC(=O)[C@H](CCC(N)=O)NC(=O)[C@H](CO)NC(=O)[C@@H](N)Cc1c[nH]cn1)[C@@H](C)O)[C@@H](C)O)C(C)C)C(C)C)C(=O)N[C@@H](CCC(=O)O)C(=O)N[C@@H](CO)C(=O)N[C@H](C(=O)O)[C@@H](C)O"}}, "key": {"[1]": {"experiment": "Maximum solubility in phosphate buffer pH 7.4", "format": "physicochemical", "conditions": "phosphate buffer pH 7.4, room temperature"}, "[2]": {"target": "T1, human glucagon receptor (GCGR) (Homo sapiens, UniProt P47871)", "T1 construct": "expressed in transfected cells", "T1 sequence (P47871 26-477)": "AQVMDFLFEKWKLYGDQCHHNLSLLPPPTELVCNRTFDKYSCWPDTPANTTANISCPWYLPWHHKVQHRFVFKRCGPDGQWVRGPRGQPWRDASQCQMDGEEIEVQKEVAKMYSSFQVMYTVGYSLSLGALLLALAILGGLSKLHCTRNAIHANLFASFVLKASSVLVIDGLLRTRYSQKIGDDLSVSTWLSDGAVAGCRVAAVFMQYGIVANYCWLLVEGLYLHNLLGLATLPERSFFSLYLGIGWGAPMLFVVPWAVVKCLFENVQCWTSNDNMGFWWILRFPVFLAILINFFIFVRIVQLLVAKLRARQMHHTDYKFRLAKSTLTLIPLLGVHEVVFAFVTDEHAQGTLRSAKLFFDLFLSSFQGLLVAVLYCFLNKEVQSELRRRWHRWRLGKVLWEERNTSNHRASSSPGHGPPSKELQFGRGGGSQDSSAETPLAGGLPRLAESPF", "experiment": "Agonist activity assay for GCGR (cAMP HTRF)", "format": "cell-based", "conditions": "normalized by the activity of the native glucagon", "method": "The activation of GCGR by related compounds will stimulate the formation of cyclic adenosine monophosphate (cAMP) in cells. Thus, the receptor activity can be monitored by cAMP production in proper cells expressing the receptor. […] The cells were passaged at least once for subsequent tests. Before testing, the cells were trypsinized, centrifuged, washed once, and resuspended in serum-free DMEM/F12 medium. The cell density was adjusted, and the cells were plated in a 96-well plate at a density of 2,500 cells/5 μL/well. […] The mixture was mixed well by moderate vibration, and incubated for 1 hour at room temperature away from light."}, "[3]": {"target": "T2, human glucose-dependent insulinotropic polypeptide receptor (GIPR) (human, UniProt P48546 22-466)", "T2 sequence (looked up)": "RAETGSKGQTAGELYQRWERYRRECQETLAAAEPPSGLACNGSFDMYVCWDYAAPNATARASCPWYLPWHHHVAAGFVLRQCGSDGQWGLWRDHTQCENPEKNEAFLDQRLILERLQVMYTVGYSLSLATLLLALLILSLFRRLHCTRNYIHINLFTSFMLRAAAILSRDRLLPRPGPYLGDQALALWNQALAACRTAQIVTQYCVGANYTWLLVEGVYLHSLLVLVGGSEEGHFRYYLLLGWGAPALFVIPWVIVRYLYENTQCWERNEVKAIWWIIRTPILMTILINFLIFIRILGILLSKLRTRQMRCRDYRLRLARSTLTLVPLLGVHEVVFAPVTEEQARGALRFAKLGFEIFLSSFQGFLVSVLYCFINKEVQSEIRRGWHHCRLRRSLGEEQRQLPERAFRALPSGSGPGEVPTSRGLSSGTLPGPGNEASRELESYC", "experiment": "cell-based or functional assay"}, "[4]": {"target": "human glucagon-like peptide-1 receptor (GLP-1R) (human, UniProt P43220 24-463)", "experiment": "cell-based or functional assay"}, "[5]": {"target": "human glucagon receptor (GCGR) (human, UniProt P47871 26-477)", "sequence (P47871 26-477)": "as the sequence (P47871 26-477) above", "experiment": "cell-based or functional assay"}}, "note": "Where a SMILES comes first, the peptide text is derived from it. [ ]: non-standard residue; d: D form. Aib = CC(C)(N)C(=O)O", "data": [{"molecule": "CC(C)C[C@H](NC(=O)[C@H](Cc1ccc(O)cc1)NC(=O)[C@H](CCCCN)NC(=O)[C@H](CO)NC(=O)[C@H](Cc1ccc(O)cc1)NC(=O)[C@H](CC(=O)O)NC(=O)[C@H](CO)NC(=O)[C@@H](NC(=O)[C@H](Cc1ccccc1)NC(=O)[C@@H](NC(=O)CNC(=O)[C@H](Cc1c[nH]cn1)NC(=O)[C@H](CO)NC(=O)[C@@H](N)Cc1c[nH]cn1)[C@@H](C)O)[C@@H](C)O)C(=O)N[C@@H](CC(=O)O)C(=O)N[C@@H](CC(C)C)C(=O)NC(C)(C)C(=O)N[C@@H](CCCNC(=N)N)C(=O)N[C@@H](C)C(=O)N[C@@H](CCC(N)=O)C(=O)N[C@@H](CCC(=O)O)C(=O)N[C@@H](Cc1ccccc1)C(=O)N[C@H](C(=O)N[C@@H](CCC(N)=O)C(=O)N[C@@H](Cc1c[nH]c2ccccc12)C(=O)N[C@@H](CC(C)C)C(=O)N[C@@H](CCC(=O)O)C(=O)N[C@@H](CO)C(=O)N[C@H](C(=O)O)[C@@H](C)O)C(C)C", "note": "[Compound 43] (H-HSHGTFTSDYSKYLDL[Aib]RAQEFVQWLEST-OH)", "values": [{"measurement": "solubility at 5 min", "setting": "[1]", "result": 1620, "unit": "µg/mL"}, {"measurement": "Relative activity", "setting": "[2]", "result": 371, "unit": "%"}]}, {"molecule": "CC(C)C[C@H](NC(=O)[C@H](Cc1ccc(O)cc1)NC(=O)[C@H](CCCCN)NC(=O)[C@H](CO)NC(=O)[C@H](Cc1ccc(O)cc1)NC(=O)[C@H](CC(=O)O)NC(=O)[C@H](CO)NC(=O)[C@@H](NC(=O)[C@H](Cc1ccccc1)NC(=O)[C@@H](NC(=O)CNC(=O)[C@H](Cc1c[nH]cn1)NC(=O)[C@H](CO)NC(=O)[C@@H](N)Cc1c[nH]cn1)[C@@H](C)O)[C@@H](C)O)C(=O)N[C@@H](CC(=O)O)C(=O)N[C@@H](CC(C)C)C(=O)NC(C)(C)C(=O)N[C@@H](CCCNC(=N)N)C(=O)N[C@@H](C)C(=O)N[C@@H](CCC(N)=O)C(=O)N[C@@H](CCC(=O)O)C(=O)N[C@@H](Cc1ccccc1)C(=O)N[C@H](C(=O)N[C@@H](CCC(=O)O)C(=O)N[C@@H](Cc1c[nH]c2ccccc12)C(=O)N[C@@H](CC(C)C)C(=O)N[C@@H](CCC(=O)O)C(=O)N[C@@H](CO)C(=O)N[C@H](C(=O)O)[C@@H](C)O)C(C)C", "note": "[Compound 47] (H-HSHGTFTSDYSKYLDL[Aib]RAQEFVEWLEST-OH)", "values": [{"measurement": "solubility at 5 min", "setting": "[1]", "result": "> 2070", "unit": "µg/mL"}, {"measurement": "Relative activity", "setting": "[2]", "result": 253, "unit": "%"}]}, {"molecule": "CC(C)C[C@H](NC(=O)[C@H](Cc1ccc(O)cc1)NC(=O)[C@H](CCCCN)NC(=O)[C@H](CO)NC(=O)[C@H](Cc1ccc(O)cc1)NC(=O)[C@H](CC(=O)O)NC(=O)[C@H](CO)NC(=O)[C@@H](NC(=O)[C@H](Cc1ccccc1)NC(=O)[C@@H](NC(=O)CNC(=O)[C@H](CCC(N)=O)NC(=O)[C@H](CO)NC(=O)[C@@H](N)Cc1c[nH]cn1)[C@@H](C)O)[C@@H](C)O)C(=O)N[C@@H](CCC(=O)O)C(=O)N[C@@H](CO)C(=O)NC(C)(C)C(=O)N[C@@H](CCCNC(=N)N)C(=O)N[C@@H](C)C(=O)N[C@@H](CCC(=O)O)C(=O)N[C@@H](CC(=O)O)C(=O)N[C@@H](Cc1ccccc1)C(=O)N[C@H](C(=O)N[C@@H](CCCNC(=N)N)C(=O)N[C@@H](Cc1c[nH]c2ccccc12)C(=O)N[C@@H](CC(C)C)C(=O)N[C@@H](CCC(=O)O)C(=O)N[C@@H](CO)C(=O)N[C@H](C(=O)O)[C@@H](C)O)C(C)C", "note": "[Compound 38] (H-HSQGTFTSDYSKYLES[Aib]RAEDFVRWLEST-OH)", "values": [{"measurement": "solubility", "setting": "[1]", "result": "> 16400", "unit": "µg/mL"}]}, {"molecule": "B1", "values": [{"measurement": "GIPR % Activity relative to native GIP, cAMP HTRF", "setting": "[3]", "result": "< 0.07", "unit": "%"}, {"measurement": "GIPR EC50 (nM), cAMP HTRF in CHO-K1/GIPR cells", "setting": "[3]", "result": "> 100", "unit": "nM"}, {"measurement": "GLP-1R % Activity relative to native GLP-1, cAMP HTRF", "setting": "[4]", "result": 0.231, "unit": "%"}, {"measurement": "GLP-1R EC50 (nM), cAMP HTRF in CHO-GLP-1R cells", "setting": "[4]", "result": 116, "unit": "nM"}, {"measurement": "Human GCGR receptor EC50 (nM), cAMP HTRF in CHO-K1/GCGR/CRE-Luc cells", "setting": "[5]", "result": 0.058, "unit": "nM"}, {"measurement": "Relative activity (%) (normalized by the activity of the native glucagon), cAMP HTRF", "setting": "[5]", "result": 333, "unit": "%"}]}]}
